According to patent US20140087995A1 (published 2014):
Numbered stars: 1 amine (or outer) side, 2 acyl side, 3 side chain; on linkers, the order of the positions; unused ones are H or OH. Bridge positions count the residues as written; N and C are the ends. Side chains are listed from the residue outwards. Ends that are not written are not given here. * marks the point of attachment. C20 diacid = O=C(O)CCCCCCCCCCCCCCCCCCC(=O)*; γGlu = O=C(O)[C@H](CCC(=O)[*:2])N[*:1]

T1: rat calcitonin receptor (rat, UniProt P32214 25-516)
T1 construct: whole, on cells; also called rCTR; rat calcitonin (a) receptor
T1 sequence (looked up): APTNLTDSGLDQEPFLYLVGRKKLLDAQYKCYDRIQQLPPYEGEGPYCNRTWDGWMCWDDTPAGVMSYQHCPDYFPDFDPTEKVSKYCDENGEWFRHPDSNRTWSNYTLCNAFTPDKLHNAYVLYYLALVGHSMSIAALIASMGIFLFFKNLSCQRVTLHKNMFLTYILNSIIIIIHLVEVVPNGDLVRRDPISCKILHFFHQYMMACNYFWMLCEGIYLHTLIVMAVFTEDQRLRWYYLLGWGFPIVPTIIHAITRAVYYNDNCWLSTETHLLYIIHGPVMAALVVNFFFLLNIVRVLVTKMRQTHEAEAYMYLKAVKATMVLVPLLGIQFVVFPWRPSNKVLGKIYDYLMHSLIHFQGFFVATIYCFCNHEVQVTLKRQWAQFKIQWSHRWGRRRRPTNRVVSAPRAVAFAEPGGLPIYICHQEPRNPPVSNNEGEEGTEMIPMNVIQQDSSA

T2: human calcitonin receptor (human, UniProt P30988 25-474)
T2 construct: whole, on cells; also called hCTR; hCT
T2 sequence (looked up): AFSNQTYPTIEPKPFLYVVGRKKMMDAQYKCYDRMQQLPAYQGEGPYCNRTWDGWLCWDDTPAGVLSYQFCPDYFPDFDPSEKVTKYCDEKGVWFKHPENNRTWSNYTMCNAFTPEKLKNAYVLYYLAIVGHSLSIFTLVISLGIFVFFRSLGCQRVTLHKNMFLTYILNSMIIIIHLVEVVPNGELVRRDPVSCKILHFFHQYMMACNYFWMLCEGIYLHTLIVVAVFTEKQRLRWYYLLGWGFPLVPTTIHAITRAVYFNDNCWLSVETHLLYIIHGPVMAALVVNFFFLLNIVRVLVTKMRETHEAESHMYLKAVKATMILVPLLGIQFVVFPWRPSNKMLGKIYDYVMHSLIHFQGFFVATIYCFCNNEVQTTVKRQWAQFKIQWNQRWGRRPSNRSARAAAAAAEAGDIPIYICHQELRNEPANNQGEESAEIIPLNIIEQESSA

T3: rat amylin receptor (rat calcitonin receptor + rat RAMP 3) (rat, UniProt P32214 25-516; Q9JJ73 23-147)
T3 construct: whole, on cells; also called rAmylin-R; rat amylin 3(a) receptor
T3 sequence (looked up) 1: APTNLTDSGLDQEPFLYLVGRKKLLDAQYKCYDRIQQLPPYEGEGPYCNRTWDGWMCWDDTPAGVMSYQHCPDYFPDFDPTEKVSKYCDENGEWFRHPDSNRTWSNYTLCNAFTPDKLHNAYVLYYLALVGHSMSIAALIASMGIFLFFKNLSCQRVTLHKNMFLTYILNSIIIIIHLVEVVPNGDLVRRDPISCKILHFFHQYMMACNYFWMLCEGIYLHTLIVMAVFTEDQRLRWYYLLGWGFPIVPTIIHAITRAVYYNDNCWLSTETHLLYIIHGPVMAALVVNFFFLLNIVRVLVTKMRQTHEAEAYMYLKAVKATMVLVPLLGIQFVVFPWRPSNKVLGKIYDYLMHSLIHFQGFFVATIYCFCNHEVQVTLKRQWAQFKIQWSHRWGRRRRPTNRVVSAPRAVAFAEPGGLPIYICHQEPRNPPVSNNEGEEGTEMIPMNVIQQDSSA
T3 sequence (looked up) 2: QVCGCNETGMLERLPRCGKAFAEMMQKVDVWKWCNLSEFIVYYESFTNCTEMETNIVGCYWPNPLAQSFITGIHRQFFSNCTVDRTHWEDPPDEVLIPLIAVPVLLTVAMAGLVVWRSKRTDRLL


Key:
[1] = target: T1, rat calcitonin receptor; test: ratio of binding IC50s: rat calcitonin receptor over rat amylin receptor (reference)
[2] = target: T2, human calcitonin receptor; test: ratio of binding IC50s: human calcitonin receptor over human amylin receptor (reference)
Method in brief: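 IC₅₀ values were derived by one-site competition analysis of SPA counts. Cell membranes (35 ng/μL) with SPA beads were incubated with test compounds for 120 min at 25° C in Hepes buffer, pH 7.4, containing CaCl2, MgCl₂, OA and Tween20.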

[3] = target: T1, rat calcitonin receptor; test: SPA competition with 125I-calcitonin, membranes of BHK cells with rat calcitonin receptor (Assay VIII)
[4] = target: T3, rat amylin receptor (rat calcitonin …); test: SPA competition with 125I-rat amylin, membranes of BHK cells with rat calcitonin receptor + rat RAMP3 (Assay VI)

| Ratio rCT/rAmylin binding [1] | Ratio hCT/hAmylin binding [2] | IC50 [3] [nM] | IC50 [4] [nM] | Binder |
| --- | --- | --- | --- | --- |
| 42.9 | 87.2 | 61.1 | 1.42 | K([γGlu-C20 diacid])CNTATCATQRLAHFLRHSSPNFGAIPSSTNVGHNTY-NH2 (disulfide 2-7; N-terminus assumed; SMILES CC[C@H](C)[C@H](NC(=O)[C@H](C)NC(=O)CNC(=O)[C@H](Cc1ccccc1)NC(=O)[C@H](CC(N)=O)NC(=O)[C@@H]1CCCN1C(=O)[C@H](CO)NC(=O)[C@H](CO)NC(=O)[C@H](Cc1c[nH]cn1)NC(=O)[C@H](CCCNC(=N)N)NC(=O)[C@H](CC(C)C)NC(=O)[C@H](Cc1ccccc1)NC(=O)[C@H](Cc1c[nH]cn1)NC(=O)[C@H](C)NC(=O)[C@H](CC(C)C)NC(=O)[C@H](CCCNC(=N)N)NC(=O)[C@H](CCC(N)=O)NC(=O)[C@@H](NC(=O)[C@H](C)NC(=O)[C@@H]1CSSC[C@H](NC(=O)[C@@H](N)CCCCNC(=O)CC[C@H](NC(=O)CCCCCCCCCCCCCCCCCCC(=O)O)C(=O)O)C(=O)N[C@@H](CC(N)=O)C(=O)N[C@@H]([C@@H](C)O)C(=O)N[C@@H](C)C(=O)N[C@@H]([C@@H](C)O)C(=O)N1)[C@@H](C)O)C(=O)N1CCC[C@H]1C(=O)N[C@@H](CO)C(=O)N[C@@H](CO)C(=O)N[C@H](C(=O)N[C@@H](CC(N)=O)C(=O)N[C@H](C(=O)NCC(=O)N[C@@H](Cc1c[nH]cn1)C(=O)N[C@@H](CC(N)=O)C(=O)N[C@H](C(=O)N[C@@H](Cc1ccc(O)cc1)C(N)=O)[C@@H](C)O)C(C)C)[C@@H](C)O, synthetic analogue of human amylin; also called compound 81) |
| 85.4 | 51.6 | 14.7 | 0.172 | K([γGlu-C20 diacid])CNTATCATQRLAHFLRHSSPNFGAIPSSTNVGPNTY-NH2 (disulfide 2-7; N-terminus assumed; SMILES CC[C@H](C)[C@H](NC(=O)[C@H](C)NC(=O)CNC(=O)[C@H](Cc1ccccc1)NC(=O)[C@H](CC(N)=O)NC(=O)[C@@H]1CCCN1C(=O)[C@H](CO)NC(=O)[C@H](CO)NC(=O)[C@H](Cc1c[nH]cn1)NC(=O)[C@H](CCCNC(=N)N)NC(=O)[C@H](CC(C)C)NC(=O)[C@H](Cc1ccccc1)NC(=O)[C@H](Cc1c[nH]cn1)NC(=O)[C@H](C)NC(=O)[C@H](CC(C)C)NC(=O)[C@H](CCCNC(=N)N)NC(=O)[C@H](CCC(N)=O)NC(=O)[C@@H](NC(=O)[C@H](C)NC(=O)[C@@H]1CSSC[C@H](NC(=O)[C@@H](N)CCCCNC(=O)CC[C@H](NC(=O)CCCCCCCCCCCCCCCCCCC(=O)O)C(=O)O)C(=O)N[C@@H](CC(N)=O)C(=O)N[C@@H]([C@@H](C)O)C(=O)N[C@@H](C)C(=O)N[C@@H]([C@@H](C)O)C(=O)N1)[C@@H](C)O)C(=O)N1CCC[C@H]1C(=O)N[C@@H](CO)C(=O)N[C@@H](CO)C(=O)N[C@H](C(=O)N[C@@H](CC(N)=O)C(=O)N[C@H](C(=O)NCC(=O)N1CCC[C@H]1C(=O)N[C@@H](CC(N)=O)C(=O)N[C@H](C(=O)N[C@@H](Cc1ccc(O)cc1)C(N)=O)[C@@H](C)O)C(C)C)[C@@H](C)O, synthetic analogue of human amylin; also called compound 67) |
| 126 | 159 | 352 | 2.8 | K([γGlu-γGlu-C20 diacid])CNTATCATQRLANFLRHSSPNFGAIPSSTNVGHNTY-NH2 (disulfide 2-7; N-terminus assumed; SMILES CC[C@H](C)[C@H](NC(=O)[C@H](C)NC(=O)CNC(=O)[C@H](Cc1ccccc1)NC(=O)[C@H](CC(N)=O)NC(=O)[C@@H]1CCCN1C(=O)[C@H](CO)NC(=O)[C@H](CO)NC(=O)[C@H](Cc1c[nH]cn1)NC(=O)[C@H](CCCNC(=N)N)NC(=O)[C@H](CC(C)C)NC(=O)[C@H](Cc1ccccc1)NC(=O)[C@H](CC(N)=O)NC(=O)[C@H](C)NC(=O)[C@H](CC(C)C)NC(=O)[C@H](CCCNC(=N)N)NC(=O)[C@H](CCC(N)=O)NC(=O)[C@@H](NC(=O)[C@H](C)NC(=O)[C@@H]1CSSC[C@H](NC(=O)[C@@H](N)CCCCNC(=O)CC[C@H](NC(=O)CC[C@H](NC(=O)CCCCCCCCCCCCCCCCCCC(=O)O)C(=O)O)C(=O)O)C(=O)N[C@@H](CC(N)=O)C(=O)N[C@@H]([C@@H](C)O)C(=O)N[C@@H](C)C(=O)N[C@@H]([C@@H](C)O)C(=O)N1)[C@@H](C)O)C(=O)N1CCC[C@H]1C(=O)N[C@@H](CO)C(=O)N[C@@H](CO)C(=O)N[C@H](C(=O)N[C@@H](CC(N)=O)C(=O)N[C@H](C(=O)NCC(=O)N[C@@H](Cc1c[nH]cn1)C(=O)N[C@@H](CC(N)=O)C(=O)N[C@H](C(=O)N[C@@H](Cc1ccc(O)cc1)C(N)=O)[C@@H](C)O)C(C)C)[C@@H](C)O, synthetic analogue of human amylin; also called compound 86) |
| 35.8 | 45.5 | 20.8 | 0.581 | K([γGlu-C20 diacid])CNTATCATQRLAHFLRHSSPNFGAIPSSTNVGSHTY-NH2 (disulfide 2-7; N-terminus assumed; SMILES CC[C@H](C)[C@H](NC(=O)[C@H](C)NC(=O)CNC(=O)[C@H](Cc1ccccc1)NC(=O)[C@H](CC(N)=O)NC(=O)[C@@H]1CCCN1C(=O)[C@H](CO)NC(=O)[C@H](CO)NC(=O)[C@H](Cc1c[nH]cn1)NC(=O)[C@H](CCCNC(=N)N)NC(=O)[C@H](CC(C)C)NC(=O)[C@H](Cc1ccccc1)NC(=O)[C@H](Cc1c[nH]cn1)NC(=O)[C@H](C)NC(=O)[C@H](CC(C)C)NC(=O)[C@H](CCCNC(=N)N)NC(=O)[C@H](CCC(N)=O)NC(=O)[C@@H](NC(=O)[C@H](C)NC(=O)[C@@H]1CSSC[C@H](NC(=O)[C@@H](N)CCCCNC(=O)CC[C@H](NC(=O)CCCCCCCCCCCCCCCCCCC(=O)O)C(=O)O)C(=O)N[C@@H](CC(N)=O)C(=O)N[C@@H]([C@@H](C)O)C(=O)N[C@@H](C)C(=O)N[C@@H]([C@@H](C)O)C(=O)N1)[C@@H](C)O)C(=O)N1CCC[C@H]1C(=O)N[C@@H](CO)C(=O)N[C@@H](CO)C(=O)N[C@H](C(=O)N[C@@H](CC(N)=O)C(=O)N[C@H](C(=O)NCC(=O)N[C@@H](CO)C(=O)N[C@@H](Cc1c[nH]cn1)C(=O)N[C@H](C(=O)N[C@@H](Cc1ccc(O)cc1)C(N)=O)[C@@H](C)O)C(C)C)[C@@H](C)O, synthetic analogue of human amylin; also called compound 66) |
| 42.8 | 63 | 18 | 0.42 | K([γGlu-C20 diacid])CNTATCATQRLAHFLRHSSPNFGAIPSSTPVGSNTY-NH2 (disulfide 2-7; N-terminus assumed; SMILES CC[C@H](C)[C@H](NC(=O)[C@H](C)NC(=O)CNC(=O)[C@H](Cc1ccccc1)NC(=O)[C@H](CC(N)=O)NC(=O)[C@@H]1CCCN1C(=O)[C@H](CO)NC(=O)[C@H](CO)NC(=O)[C@H](Cc1c[nH]cn1)NC(=O)[C@H](CCCNC(=N)N)NC(=O)[C@H](CC(C)C)NC(=O)[C@H](Cc1ccccc1)NC(=O)[C@H](Cc1c[nH]cn1)NC(=O)[C@H](C)NC(=O)[C@H](CC(C)C)NC(=O)[C@H](CCCNC(=N)N)NC(=O)[C@H](CCC(N)=O)NC(=O)[C@@H](NC(=O)[C@H](C)NC(=O)[C@@H]1CSSC[C@H](NC(=O)[C@@H](N)CCCCNC(=O)CC[C@H](NC(=O)CCCCCCCCCCCCCCCCCCC(=O)O)C(=O)O)C(=O)N[C@@H](CC(N)=O)C(=O)N[C@@H]([C@@H](C)O)C(=O)N[C@@H](C)C(=O)N[C@@H]([C@@H](C)O)C(=O)N1)[C@@H](C)O)C(=O)N1CCC[C@H]1C(=O)N[C@@H](CO)C(=O)N[C@@H](CO)C(=O)N[C@H](C(=O)N1CCC[C@H]1C(=O)N[C@H](C(=O)NCC(=O)N[C@@H](CO)C(=O)N[C@@H](CC(N)=O)C(=O)N[C@H](C(=O)N[C@@H](Cc1ccc(O)cc1)C(N)=O)[C@@H](C)O)C(C)C)[C@@H](C)O, synthetic analogue of human amylin; also called compound 62) |
